According to US20110104667 (INFOSCITEX CORPORATION, published 2011):

Target: recombinant anthrax protective antigen (rPA) (UniProt P13423 P13423:30-764)
Assay: ELONA
Settings: tags: MW about 83 kDa; label: 5' biotin

Chain of recombinant anthrax protective antigen (rPA) (P13423 30-764, one chain of several): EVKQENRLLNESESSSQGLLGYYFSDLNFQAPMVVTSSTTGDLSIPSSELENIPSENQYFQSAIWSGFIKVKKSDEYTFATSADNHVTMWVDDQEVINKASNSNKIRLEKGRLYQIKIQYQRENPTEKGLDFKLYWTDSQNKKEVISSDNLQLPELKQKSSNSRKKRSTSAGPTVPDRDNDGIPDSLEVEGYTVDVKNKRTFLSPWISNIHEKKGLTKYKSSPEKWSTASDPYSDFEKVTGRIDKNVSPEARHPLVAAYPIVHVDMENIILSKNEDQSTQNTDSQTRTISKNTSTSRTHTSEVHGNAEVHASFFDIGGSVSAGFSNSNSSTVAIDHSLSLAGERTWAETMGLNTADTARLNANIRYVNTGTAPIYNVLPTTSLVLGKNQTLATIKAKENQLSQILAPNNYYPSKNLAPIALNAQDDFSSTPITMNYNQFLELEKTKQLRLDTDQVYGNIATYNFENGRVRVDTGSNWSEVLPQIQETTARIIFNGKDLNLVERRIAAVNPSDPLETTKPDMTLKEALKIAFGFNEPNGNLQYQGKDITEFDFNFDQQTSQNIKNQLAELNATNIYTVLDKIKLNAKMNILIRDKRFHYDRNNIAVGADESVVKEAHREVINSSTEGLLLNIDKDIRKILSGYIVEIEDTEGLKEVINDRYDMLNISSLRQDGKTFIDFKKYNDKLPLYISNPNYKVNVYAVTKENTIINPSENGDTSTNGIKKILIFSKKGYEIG

B1: rPA DNA aptamer, biotinylated (ssDNA)
DNA: TACGACTCACTATAGGGATCCCGAGCTGCAATGGAGTGATTACTAGGGATGTGCGAGGCGCCGAATTCCCTTTAGTGAGGGTT
- binding result: binds
